Data: patent US20090191187A1 (published 2009)

How the values were obtained:
[1] = biological target: T1, recombinant soluble human type 1 IL-1 receptor (extracellular domain, glycosylated) (human, UniProt P14778 21-333, N-glycosylated (from SF9 insect cells); biotinylated in the ELISA of Examples 2 and 4c); assay: ELISA on biotinylated human IL-1R on streptavidin plates
T1 construct: also called hIL-1R; rshIL-1R
T1 sequence: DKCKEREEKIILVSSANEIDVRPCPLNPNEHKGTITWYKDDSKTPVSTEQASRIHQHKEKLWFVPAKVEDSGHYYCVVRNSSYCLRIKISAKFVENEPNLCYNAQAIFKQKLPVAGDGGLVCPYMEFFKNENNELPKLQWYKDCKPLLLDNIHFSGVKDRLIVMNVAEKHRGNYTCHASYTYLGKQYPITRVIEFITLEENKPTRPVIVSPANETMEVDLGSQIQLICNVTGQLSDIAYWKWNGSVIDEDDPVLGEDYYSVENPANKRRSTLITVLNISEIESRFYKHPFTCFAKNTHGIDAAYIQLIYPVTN
Procedure: The relative immunactivity of the antibodies as compared to 2D8 antibody was determined by ELISA. A soluble biotinylated human IL-1R was coated at room temperature for one hour to 96-well-plates (precoated with streptavidin). After blocking with BSA the antibody was diluted and added to the wells and incubated at room temperature for two hours. The plates were washed three times and incubated with horse-radish-peroxidase (POD)-conjugated rabbit-anti-rat-IgG at room temperature for one hour. After further washing the amount of bound antibody was determined by addition of TM-Blue® ([…]) and measurement of the absorbance at 370 nm.

[2] = biological target: T1, recombinant soluble human type 1 IL-1 …; assay: SPR competition: IL-1R (10 nM) preincubated with DEI5/8, injected over immobilized 2D8 (competitor); first assay: immobilized 2D8
Procedure: The protein-protein interaction of anti-IL-1R antibodies with IL-1R is analyzed by surface plasmon resonance using a Biacore 3000 System. Association rates are determined by an injection of two minutes duration; dissociation rates are measured by a washing step of three minutes duration. Negative control data are subtracted from original curves for correction of system intrinsic baseline drift and for noise signal reduction. Two assay formats with the antibody and IL-1R immobilized to the chip surface are used for this study.
a) Anti-IL-1R antibody 2D8 is covalently immobilized on the chip surface (CM5) by amine coupling. IL-1R is injected in a concentration of 10 nM under mass transfer conditions in order to determine the maximum signal which serves as a reference in the inhibition studies. Inhibition of IL-1R (10 nM) binding is measured by preincubation (in HBS—P buffer for at least 20 min at room temperature) of IL-1R with increasing concentrations (0.78-100 nM) of IL-1R antagonist, IL-1beta or DEI5/8. Subsequently, the samples are injected into the flow cells and interaction with immobilized 2D8 antibody is determined.

[3] = biological target: T2, human interleukin-1 receptor on cells (MRC-5 human embryonic lung fibroblasts; human blood cells) (human, UniProt P14778 18-569); assay: cell-based or functional assay
T2 sequence (looked up): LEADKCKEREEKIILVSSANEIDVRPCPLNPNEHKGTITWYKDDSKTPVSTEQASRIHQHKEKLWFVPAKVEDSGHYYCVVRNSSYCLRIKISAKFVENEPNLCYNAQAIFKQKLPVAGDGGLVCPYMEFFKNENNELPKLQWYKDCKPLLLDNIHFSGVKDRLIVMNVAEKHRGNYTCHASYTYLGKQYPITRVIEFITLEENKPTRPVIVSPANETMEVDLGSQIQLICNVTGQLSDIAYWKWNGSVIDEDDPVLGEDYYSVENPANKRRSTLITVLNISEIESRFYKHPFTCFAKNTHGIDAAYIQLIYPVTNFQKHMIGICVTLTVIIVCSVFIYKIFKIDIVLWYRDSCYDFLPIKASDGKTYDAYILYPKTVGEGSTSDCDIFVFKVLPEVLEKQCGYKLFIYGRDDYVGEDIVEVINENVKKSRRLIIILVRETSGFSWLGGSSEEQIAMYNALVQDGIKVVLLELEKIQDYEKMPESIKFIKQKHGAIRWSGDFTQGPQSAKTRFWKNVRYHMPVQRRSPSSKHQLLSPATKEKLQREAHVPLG

- ELISA (absorbance at 370 nm in relation to 2D8), 1st experiment [1]: 1.4 relative to 2D8
- ELISA (absorbance at 370 nm in relation to 2D8), 2nd experiment [1]: 1.9 relative to 2D8
- ELISA (absorbance at 370 nm in relation to 2D8), mean [1]: 1.7 relative to 2D8
- IC50 [2]: 2 nM
- Bioassay (IC50 in relation to 2D8), 1st experiment [3]: 1.7 relative to 2D8
- Bioassay (IC50 in relation to 2D8), 2nd experiment [3]: 2.2 relative to 2D8
- Bioassay (IC50 in relation to 2D8), Mean [3]: 2 relative to 2D8
B1: DEI5/8 (antibody, human IgG4, kappa, V domains shown)
VH: QLQLQESGPGLVKPSQTLSLTCTVSGLSLTSNSITWIRQPPGKGPEWMGMIWSNGDTDYSTSLKSRLTISKDTSKSQVVLTMTNMDPVDTATYYCARYNYYFDYWGQGTLVTVSS
VL: DIVLTQSPATLSLSPGERATLSCKASQNVDNRGVSYVHWYQQKPGQAPKLLIYKGSNLAFGVPSRFSGSGSGTDFTLTISSLQPEDFATYFCQQSKGHPDTFGAGTKLELKR
notes: also called combination of HURDIVHv5 and HURDIVKv8
